Laboratory results: the DeepSol protein solubility set

Test: soluble on expression in E. coli; label from the status in PepcDB or PDB records

Row | Sequence | soluble on expression in E. coli
1 | MMNVPEGFQPLFRSSPLLDLLGPFFCRQDAQRQLVVALRIDEKHCNHGGTAHGGLLSTLADVGLGYAMAFSREPPQPMVTVGLRLDFCGVARVGDWLEVHTRVDKLGQRMAFASARLHSGERLVASASGVFHLP | not soluble
2 | MMPNVAPNSYYLNIPNANSTSTTTSSIFSDLNKEYESKIKEIEEYYIKTLLNENTDNDDSSSSEGHNINETDILSEYSPRPSPWLPSKPNCYHPLGDFKDLIISDSRPTNTLPINNPFAGNNNISTLATTEKKRKKRSLEVRVNPTYTTSAFSLPLTAENLQKLSQVDSQSTGLPYTLPIQKTTKLEPCRRAPLQLPQLVNKTLYKTELCESFTIKGYCKYGNKCQFAHGLNELKFKKKSNNYRTKPCINWSKLGYCPYGKRCCFKHGDDKDVEIYQNANDGRSKDTALTPLPTSLAPSNNDNITNLSKPRNLHTSVKALQRMTW | not soluble
3 | MMQFEVKDLINKIKKDGLEEAERASNDIILKAKREAEEIVARAEEAARVLKAKSEKEANDYKCHALEASRQAIRDLIIGVEKNLKSLFENALKDNVTEVLSDNNFLAELIIKITDSWAKGEKLVIQLNESDFSSLEQILRLKLGNKLKEGMELRPFRGISKGFKIQKKNIGLHYDFSAETIADILFDYLNPRFKEVIKVV | not soluble
4 | MMQPLYLVGPRGCGKTTIGMALAQATGFRFADTDRWLQSHVQMSVADIVEKEGWGGFRARETAALEAVSAPSTVVATGGGIILTEYNRRYMHRVGVVIYLCAPVSTLVNRLEAEPEADLRPTLTGKPLSEEVREVLEQRDALYRETAHYIIDATKAPAQVVSEIIAALPPSTQRLQGDVYT | not soluble
5 | MMRGSHHHHHTDPISYIIRKADSVNKALDSAVPLREPLKIHEAMRYSLLAGGKRVRPVLCIAACELVGGEESLAMPAACAVEMIHTMSLIHDDLPCMDNDDLRRGKPTNHKVYGEDVAVLAGDALLSFAFEHLASATSSEVSPARVVRAVGELAKAIGTEGLVAGQVVDISSEGLDLNNVGLEHLKFIHLHKTAALLEASAVLGGIIGGGSDEEIERLRKFARCIGLLFQVVDDILDVTKSSKLTYPKLMGLEKSREFAEKLNTEARDQLLGFDSDKVAPLLALANYIANRQN | soluble
6 | MMRTWQSKLHVTQHEVKLLVTCPEQGDVLKARLPPHARHPRALLTLLEGLSLYNGQPQRIALHVDERFRLTAGLFGDELWPGESPLVQYDVAHRARQCGRLSGIGDFRALRRGSP | not soluble
7 | MMSGGYKSSGVGNDRSQRSVFVGNISYDVSEDTIRSIFSKAGNVLSIKMVHDRETGKPKGYGFIEFPDIQTAEVAIRNLNGYELSGRILRVDSAAGGMNMEEFGSSSNAPAPVEENPYGPECDAGKAPERISQTVASLAPEKMFELMKQLQESLKNNPSELHKFLVEHPQIAYAVLQAAVVMRIVDPQTALGLLHRNKAATLTPFHNTPQGAPPMVQQQQMPMPPKPTFAHPGPSMGPPMGPPMGPPMGHPQAPQYGQNYGQPVAPQQYKPPPQQQPPVQMRPPVQQPQQNHQEEQQNAELLMQVMQLSEHDLQMLPAGDREKIIELRQQLKRNVK | not soluble
8 | MMSGQGKRLMVMAGGTGGHVFPGLAVAHHLMAQGWQVRWLGTADRMEADLVPKHGIEIDFIRISGLRGKGIKALIAAPLRIFNAWRQARAIMKAYKPDVVLGMGGYVSGPGGLAAWSLGIPVVLHEQNGIAGLTNKWLAKIATKVMQAFPGAFPNAEVVGNPVRTDVLALPLPQQRLAGREGPVRVLVVGGSQGARILNQTMPQVAAKLGDSVTIWHQSGKGSQQSVEQAYAEAGQPQHKVTEFIDDMAAAYAWADVVVCRSGALTVSEIAAAGLPALFVPFQHKDRQQYWNALPLEKAGAAKIIEQPQLSVDAVANTLAGWSRETLLTMAERARAASIPDATERVANEVSRVARALEHHHHHH | soluble
9 | MMSSQAWTDVENDLIVADYFAMLAEDVAGHPYNKAEHRRQLLPRLNDRSDGSVEFKHQNISAVLKGLGEVWITGYKPAFNFQTSLVDAVARWLVINPGWTHRTLSSRPVDGMAEAAQLWVGPAPTLTNQPSPDELEQMLHIAKKFDVAARDGRNRALGKAGEERVLKHERNTLTAAGREDLAQQIRWVSEEEGDGAGYDIASFDADGRQRLIEVKTTNGWERTPFHISRNELAVADERREEWCLFRLWNFARTPKAFELRPPLDAYVSLTATSFQASIHLEHHHHHH | not soluble
